One experiment concerns GFP–talin1–cBAK. Nature of the experiment: Mitochondrial targeting system (MTS): recruitment of mCherry–KANK1 by GFP–talin1–cBAK. The experiment is classed as cell-based. As to conditions: NIH3T3 fibroblasts and HEK293T cells; fluorescence microscopy colocalization. The text has this:
To examine the effect of these KANK1 mutations on talin interactions in cells, we next used a mitochondrial targeting system (MTS) which we previously used to screen for defined protein–protein interactions. In this assay, one protein is fused to a small peptide sequence from the pro-apoptotic protein BAK (cBAK) which leads to its insertion into the outer membrane of mitochondria. Proteins that interact with the cBAK-tagged protein will get recruited to mitochondria, and this recruitment can be verified either by visualizing colocalization using fluorescence microscopy (figure 4a) or by purification of mitochondria followed by detection of co-precipitates using biochemistry (figure 4b,c). […] To confirm that the interaction was meditated by the R7 domain, we performed the colocalization assays with truncated talin constructs.
(§1) NIH3T3 mouse fibroblasts and HEK293T human epithelial cells were obtained from the American Type Culture Collection (ATCC). The vinculin null and WT mouse embryonic fibroblasts (MEFs) originate from the Eileen Adamson laboratory. All cells were maintained in Dulbecco's Modified Eagle Medium (DMEM; Sigma) supplemented with 10% fetal bovine serum (FBS, Gibco), 1% L-glutamine (Sigma) and 1% non-essential amino acids (Sigma). Talin1&2 null cells were cultured in DMEM F-12 (Gibco) supplemented with 10% FBS, 1% L-glutamine, 1% non-essential amino acids and […] HEPES (Sigma). All cells were cultured at 37̊C supplied with 5% CO2 and 95% humidity. Transient transfections were performed using Lipofectamine LTX with Plus Reagent (Invitrogen) to NIH3T3 cells, Lipofectamine 2000 (Invitrogen) to talin null cells, and jetPRIME reagent (Polyplus) to MEFs and HEK293T cells, as per the manufacturer's instructions.
(§2) For the construction of mCherry-KANK1, human FL-KANK1 (generous donation from the Bershadsky laboratory) cDNA was tagged in the C-terminal site with pmCherry (Clontech) by restriction digestion. Point mutations (L41E, L43E, F45E and V49E) were introduced in mCherry-KANK1 by site-directed mutagenesis (NEB) using the following oligonucleotides: […]ga[…] and […] for L41E; […]ga[…] and […] for L43E; […]gaa[…] and […] for F45E; […]a[…] and […] for V49E. Generation of GFP–talin1–cBAK and GFP–cBAK was as previously described. G1404L was introduced on GFP–talin1–cBAK by the method above using […]ctt[…] and […]. To generate GFP–talin1 R7DD–cBAK and GFP–talin1 R9DD-cBAK constructs, R7-DD (3555 bp) and R9-DD (2661 bp) were amplified from talin-1 (Mus musculus). Restriction digestion with XhoI and HindIII FastDigest enzymes (Thermo Scientific) was used to linearize GFP–cBAK. DNA assembly was performed to join R7-DD and R9-DD to linearized the GFP–cBAK vector using the NEBuilder HiFi DNA assembly kit (NEB).
(§3) Images of fixed samples in PBS were acquired at room temperature using an Olympus IX83 inverted microscope equipped with a 60×/1.42 PlanApo N oil objective and a QImaging Retiga R6 CCD camera, controlled by Metamorph software. Samples were illuminated using LEDs (UV/Cyan/Green-Yellow/Red, Lumencor) for fluorescence excitation; a Sedat filter set (DAPI/FITC/TRITC/Cy5, Chroma, 89000) was used.

The subject of the next experiment is talin1-cBAK. Nature of the experiment: Mitochondria pulldown of KANK1 WT or point mutations, Western blot. The experiment is classed as cell-based. As to conditions: HEK293T cells; mitochondrial pulldown, triplicate experiments, normalized to WT; *** p < 0.001 (one-way ANOVA, Dunnett's).
Description: as §2
For fixed cell imaging, cells were cultured in glass-bottom dishes (IBL) coated with bovine fibronectin (Sigma) at a final concentration of 10 µg ml^−1. Samples were fixed in 4% paraformaldehyde (PFA, Sigma), and warmed to 37̊C, for 15 min before being washed three times with PBS. For immunofluorescence staining, samples were permeabilized at room temperature with 0.5% Triton X-100 (Sigma) for 5 min before being washed three times. […]
Protein samples were extracted from cells and mitochondria, respectively, using RIPA lysis buffer (Chromotek) supplemented with protease inhibitors. […] Primary antibody signal was detected using goat anti-mouse IgG conjugated to IRDye 680RD (ab216776, abcam) and goat anti-rabbit IgG conjugated to IRDye 800CW (ab216773, abcam) secondary antibodies, diluted 1 : 15 000, imaged with an Odyssey CLx imaging system (LI-CO Biosciences). […]
In general terms: In western blotting, separated proteins are transferred to a membrane and probed.

The test system of experiment [1] is focal adhesions of NIH3T3 fibroblasts. Nature of the experiment: KANK1 localization to focal adhesions (co-expression with GFP–paxillin). The experiment is classed as cell-based, mouse. As to conditions: NIH3T3 fibroblasts co-expressing GFP–paxillin. As for the experimental part:
as §1, §2, §3

B1: KANK1 L41E: mCherry-KANK1 with point mutation L41E (protein)
chain: MAHTTKVNGSASGKAGDILSGDQDKEQKDPYFVETPYGYQEDLDFLKYVDDIQKGNTIKRLNIQKRRKPSVPCPEPRTTSGQQGIWTSTESLSSSNSDDNKQCPNFLIARSQVTSTPISKPPPPLETSLPFLTIPENRQLPPPSPQLPKHNLHVTKTLMETRRRLEQERATMQMTPGEFRRPRLASFGGMGTTSSLPSFVGSGNHNPAKHQLQNGYQGNGDYGSYAPAAPTTSSMGSSIRHSPLSSGISTPVTNVSPMHLQHIREQMAIALKRLKELEEQVRTIPVLQVKISVLQEEKRQLVSQLKNQRAASQINVCGVRKRSYSAGNASQLEQLSRARRSGGELYIDYEEEEMETVEQSTQRIKEFRQLTADMQALEQKIQDSSCEASSELRENGECRSVAVGAEENMNDIVVYHRGSRSCKDAAVGTLVEMRNCGVSVTEAMLGVMTEADKEIELQQQTIESLKEKIYRLEVQLRETTHDREMTKLKQELQAAGSRKKVDKATMAQPLVFSKVVEAVVQTRDQMVGSHMDLVDTCVGTSVETNSVGISCQPECKNKVVGPELPMNWWIVKERVEMHDRCAGRSVEMCDKSVSVEVSVCETGSNTEESVNDLTLLKTNLNLKEVRSIGCGDCSVDVTVCSPKECASRGVNTEAVSQVEAAVMAVPRTADQDTSTDLEQVHQFTNTETATLIESCTNTCLSTLDKQTSTQTVETRTVAVGEGRVKDINSSTKTRSIGVGTLLSGHSGFDRPSAVKTKESGVGQININDNYLVGLKMRTIACGPPQLTVGLTASRRSVGVGDDPVGESLENPQPQAPLGMMTGLDHYIERIQKLLAEQQTLLAENYSELAEAFGEPHSQMGSLNSQLISTLSSINSVMKSASTEELRNPDFQKTSLGKITGNYLGYTCKCGGLQSGSPLSSQTSQPEQEVGTSEGKPISSLDAFPTQEGTLSPVNLTDDQIAAGLYACTNNESTLKSIMKKKDGNKDSNGAKKNLQFVGINGGYETTSSDDSSSDESSSSESDDECDVIEYPLEEEEEEEDEDTRGMAEGHHAVNIEGLKSARVEDEMQVQECEPEKVEIRERYELSEKMLSACNLLKNTINDPKALTSKDMRFCLNTLQHEWFRVSSQKSAIPAMVGDYIAAFEAISPDVLRYVINLADGNGNTALHYSVSHSNFEIVKLLLDADVCNVDHQNKAGYTPIMLAALAAVEAEKDMRIVEELFGCGDVNAKASQAGQTALMLAVSHGRIDMVKGLLACGADVNIQDDEGSTALMCASEHGHVEIVKLLLAQPGCNGHLEDNDGSTALSIALEAGHKDIAVLLYAHVNFAKAQSPGTPRLGRKTSPGPTHRGSFD
modifications: left off: mCherry, C-terminal, kept
Take B1: in the experiment with GFP–talin1–cBAK, the “recruitment of mCherry–KANK1 to mitochondria by GFP–talin1–cBAK” value was “abolishes GFP–talin–cBAK mediated recruitment”. Besides, the “relative KANK1 binding to talin1-cBAK (%)” value in the experiment with talin1-cBAK is given as “not detected”. Besides, the “localization of mCherry–KANK1 to FAs / FA belt” value in experiment [1] was “abolished localization to FAs and the FA belt”.

B2: KANK1 L43E: mCherry-KANK1 with point mutation L43E (protein)
chain: MAHTTKVNGSASGKAGDILSGDQDKEQKDPYFVETPYGYQLDEDFLKYVDDIQKGNTIKRLNIQKRRKPSVPCPEPRTTSGQQGIWTSTESLSSSNSDDNKQCPNFLIARSQVTSTPISKPPPPLETSLPFLTIPENRQLPPPSPQLPKHNLHVTKTLMETRRRLEQERATMQMTPGEFRRPRLASFGGMGTTSSLPSFVGSGNHNPAKHQLQNGYQGNGDYGSYAPAAPTTSSMGSSIRHSPLSSGISTPVTNVSPMHLQHIREQMAIALKRLKELEEQVRTIPVLQVKISVLQEEKRQLVSQLKNQRAASQINVCGVRKRSYSAGNASQLEQLSRARRSGGELYIDYEEEEMETVEQSTQRIKEFRQLTADMQALEQKIQDSSCEASSELRENGECRSVAVGAEENMNDIVVYHRGSRSCKDAAVGTLVEMRNCGVSVTEAMLGVMTEADKEIELQQQTIESLKEKIYRLEVQLRETTHDREMTKLKQELQAAGSRKKVDKATMAQPLVFSKVVEAVVQTRDQMVGSHMDLVDTCVGTSVETNSVGISCQPECKNKVVGPELPMNWWIVKERVEMHDRCAGRSVEMCDKSVSVEVSVCETGSNTEESVNDLTLLKTNLNLKEVRSIGCGDCSVDVTVCSPKECASRGVNTEAVSQVEAAVMAVPRTADQDTSTDLEQVHQFTNTETATLIESCTNTCLSTLDKQTSTQTVETRTVAVGEGRVKDINSSTKTRSIGVGTLLSGHSGFDRPSAVKTKESGVGQININDNYLVGLKMRTIACGPPQLTVGLTASRRSVGVGDDPVGESLENPQPQAPLGMMTGLDHYIERIQKLLAEQQTLLAENYSELAEAFGEPHSQMGSLNSQLISTLSSINSVMKSASTEELRNPDFQKTSLGKITGNYLGYTCKCGGLQSGSPLSSQTSQPEQEVGTSEGKPISSLDAFPTQEGTLSPVNLTDDQIAAGLYACTNNESTLKSIMKKKDGNKDSNGAKKNLQFVGINGGYETTSSDDSSSDESSSSESDDECDVIEYPLEEEEEEEDEDTRGMAEGHHAVNIEGLKSARVEDEMQVQECEPEKVEIRERYELSEKMLSACNLLKNTINDPKALTSKDMRFCLNTLQHEWFRVSSQKSAIPAMVGDYIAAFEAISPDVLRYVINLADGNGNTALHYSVSHSNFEIVKLLLDADVCNVDHQNKAGYTPIMLAALAAVEAEKDMRIVEELFGCGDVNAKASQAGQTALMLAVSHGRIDMVKGLLACGADVNIQDDEGSTALMCASEHGHVEIVKLLLAQPGCNGHLEDNDGSTALSIALEAGHKDIAVLLYAHVNFAKAQSPGTPRLGRKTSPGPTHRGSFD
modifications: left off: mCherry, C-terminal, kept
For B2, in the experiment with GFP–talin1–cBAK, the “recruitment of mCherry–KANK1 to mitochondria by GFP–talin1–cBAK” value was “abolishes GFP–talin–cBAK mediated recruitment”. Besides, the “relative KANK1 binding to talin1-cBAK (%)” value in the experiment with talin1-cBAK is reported as “not detected”. Also, the “localization of mCherry–KANK1 to FAs / FA belt” value in experiment [1] is “abolished localization to FAs and the FA belt”.

The values are drawn from paper PMC10281804, “The structural basis of the talin–KANK1 interaction that coordinates the actin and microtubule cytoskeletons at focal adhesions” (Open Biology, 2023).
